The supplement of paper PMC10126150
± gives the standard deviation of the averaged measurements.

System: ATP
Assay: switch fluorescence ratio, 500 uM ATP over buffer (Cy3 cluster intensity, sum of 5 cycles each) (fold (ratio)); higher = stronger signal-on switching upon ATP binding; sequences stand for … in TCGTCGGCAGCGTCAGATGTGTATAAGAGACAGTTTTTTTTTTTTTTTTTTTTTTTTT…TC
Conditions: aptamer strand: ATP DNA aptamer (quencher-CACCTGGGGGAGTATTGCGGAGGAAGG + anchor), 100 nM annealed; ATP concentration: 500 uM
Procedure, shortened: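 The fluorescence ratio divides summed target-cycle Cy3 intensity by summed buffer-cycle Cy3 intensity for each cluster and is averaged per switch-domain sequence. Cy3-labelled switching-strand clusters on a modified Illumina MiSeq flow-cell were annealed to 100 nM quencher-labelled ATP aptamer, then imaged in selection buffer and again after 15 min with 500 uM ATP at 22 °C. Five such cycles were run, with NaOH stripping and re-annealing between them, and clusters outside 100-1000 RFU were excluded.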
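Further: ATP exposure 15 min at 22 °C before imaging.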

Sequence | switch fluorescence ratio
TTAGACATTA | 1.02 ± 0.018
TCAGGGGCAT | 1.18 ± 0.3
GAGGATGGTT | 0.964 ± 0.04
AATTGAAAAT | 0.967 ± 0.0073
GCTGACGTTA | 1.1 ± 0.011
TTAAGAGGGT | 0.997 ± 0.015
AAGGGCGGGT | 1.03 ± 0.014
GCTTCTGGGT | 0.996 ± 0.017
CGCAGTCTGT | 1.12 ± 0.012
AAAAGAGTGT | 1.01 ± 0.023
ATTGATTGCG | 0.989 ± 0.013
TTTAGTGGTT | 1.02 ± 0.044
GCGGCCTTTC | 1.2 ± 0.23
GGGTAGCCGG | 1 ± 0.0042
CGCCGCTGGG | 1.993 ± 0.0075
TGCTAGGGGT | 1.41 ± 0.051
ACAATTGGAG | 0.9969 ± 0.0044
ACTAGGAAAA | 0.997 ± 0.011
GTTTTGAACA | 0.983 ± 0.034
AAAGCTTGAT | 1.01 ± 0.02
AGCTGAGGCT | 0.999 ± 0.015
ATTGATATCC | 0.987 ± 0.043
TCAGGGATGG | 0.984 ± 0.042

Sequence | switch fluorescence ratio
GAATTTTTTA | 0.999 ± 0.018
GATTGGGGCA | 1.02 ± 0.046
ATCAATGTGC | 0.962 ± 0.088
GGGACTATTT | 1.01 ± 0.013
CCGTTGTCTT | 1.03 ± 0.025
CGGTCGGTGT | 0.982 ± 0.022
GAAATTGGGT | 0.981 ± 0.018
CGGTTGTTGT | 1.01 ± 0.021
TTCAGTACCT | 1.19 ± 0.016
TCGGATTAGT | 1 ± 0.025
CTTGTGTTCT | 0.9964 ± 0.004
ATCGTTCTGC | 1.1 ± 0.019
TTACAAGGGA | 1.09 ± 0.18
GAGTACTTTG | 0.9847 ± 0.0015
GGTTGAGGAG | 1.04 ± 0.074
TTATTCGTCC | 1.04 ± 0.058
TCGAAGTGTT | 0.989 ± 0.027
TGTTAATAAG | 0.9618 ± 0.0071
CGACTACCTT | 1.21 ± 0.016
GCCGCCTTTT | 1.023 ± 0.0016
GTCGGTTGTG | 0.974 ± 0.055
ACGGTGGTGT | 1.03 ± 0.016
CAGTGGGGCA | 1.03 ± 0.053

Sequence | switch fluorescence ratio
CCGCTAGGGC | 2.1 ± 1.2
CTGGCAGGGC | 1.07 ± 0.016
TTTTGGGCAT | 1.04 ± 0.11
ATGCGGACAG | 1.011 ± 0.0083
GTGACACACC | 1.15 ± 0.039
ACGAGGCGTA | 1.04 ± 0.0046
ATGATTTAAC | 0.976 ± 0.035
TTTTAGTGCC | 1.01 ± 0.04
GGGTAGAAGT | 0.988 ± 0.023
CTTGAATGTC | 1.05 ± 0.054
CCGCGTCGCT | 1.317 ± 0.0055
CTGTATTTGT | 1.03 ± 0.019
AAGTCGAGTG | 0.994 ± 0.075
AGGGTTAGGT | 1.003 ± 0.0028
GTAGGGGGGG | 0.999 ± 0.051
ATGTGGTGCA | 1.02 ± 0.0034
ACGCTGGTGT | 1.34 ± 0.44
TCGTTATGGA | 0.987 ± 0.035
GAGTAATTGT | 0.9975 ± 0.0042
TTGTGTGGGC | 1.04 ± 0.047
TTTGGCGTTT | 1.01 ± 0.024
CGGTGGGTTA | 0.985 ± 0.025
TTTATTTGCC | 1.05 ± 0.042

Sequence | switch fluorescence ratio
TAAAGTGTGC | 0.9727 ± 0.0042
TTGGGGGGTT | 1.03 ± 0.066
TTGGGTAGCA | 0.9968 ± 0.0098
GGGTTTGGTG | 0.987 ± 0.02
TTTCGGCCAA | 1.62 ± 0.76
CCTAAATACC | 1.29 ± 0.25
CTCAGCAGTC | 1.2 ± 0.034
GTGGGGGTAA | 0.9692 ± 0.0039
GCAGAGTCGT | 0.999 ± 0.037
GGGTTGAAAA | 0.999 ± 0.039
ATAAACGGGG | 0.9917 ± 0.001
ATATGTTTGG | 1.01 ± 0.018
TATGTTTCAA | 1.017 ± 0.0089
GTATGGAGAG | 1.0111 ± 6.5e-05
TACTTGAGTT | 1.05 ± 0.012
GGTTGTAGTT | 0.963 ± 0.016
GCGTTGGTCG | 0.929 ± 0.0014
ATCGAAGAGG | 0.995 ± 0.048
AAGTTTTCGG | 0.989 ± 0.052
TTCACTTTGA | 1.012 ± 0.0067
ACTATTTGTT | 1.04 ± 0.027
GTGGGGCCGA | 1.01 ± 0.031
TCGGGTTTAG | 1.04 ± 0.04

Sequence | switch fluorescence ratio
ATTGTGGGGA | 0.985 ± 0.048
TTGGAAAAAG | 1.1 ± 0.18
ATAAGTTAAG | 0.999 ± 0.013
GACCTTTAAA | 1.02 ± 0.011
ATCTCGGCCG | 0.9864 ± 0.0012
CGGCGATTTA | 1.003 ± 0.009
TCCTGACGTA | 1.11 ± 0.022
GGGGAAGAAA | 0.995 ± 0.027
TTAGTACCCA | 1.03 ± 0.0032
TTTGGGAAAG | 0.978 ± 0.032
TGTCAGGAAA | 0.9717 ± 0.0065
GGGATAGGGC | 1.04 ± 0.054
TTTTAAAGGC | 1.02 ± 0.031
GGTGACGGGC | 0.978 ± 0.045
AGTTAGAGGT | 1.05 ± 0.018
CTATGGCTGG | 0.981 ± 0.017
CGGTTTGTTT | 0.987 ± 0.04
TATGTTTTTC | 0.9687 ± 0.0014
TAGATTGACC | 1.04 ± 0.033
AATGAAGTTT | 1.43 ± 0.7
GAAAAGAGGC | 1.1 ± 0.039
TTCTTTATTT | 0.993 ± 0.027
CGTGGAAGGA | 0.997 ± 0.038

Sequence | switch fluorescence ratio
CATAATTTTT | 0.991 ± 0.062
TAGGGGTGGC | 0.956 ± 0.099
CGGGGGGAGG | 1.01 ± 0.035
CGGGATGCGC | 1.04 ± 0.066
TACGGAACGG | 1.07 ± 0.029
TCACATTATA | 1.009 ± 0.0078
AGCCGGGTGT | 1.34 ± 0.47
TAAATATTTA | 0.976 ± 0.05
AATGGGCGCT | 0.97198 ± 0.00095
TGCTCCTTTT | 1 ± 0.034
AGCTGTTTCA | 0.973 ± 0.02
TTCGATCGTT | 1.01 ± 0.043
AGGATGGAGT | 0.987 ± 0.031
CATTATGTTG | 0.969 ± 0.036
GCAGTATAGC | 0.99 ± 0.011
TGGTGGCGTT | 1.026 ± 0.0082
ACGGGGGCGG | 1 ± 0.033
TTGGGAAGAT | 0.981 ± 0.018
CGGAAGTTCT | 0.993 ± 0.049
AAAAAAGACG | 1.05 ± 0.017
GGTAGGGTGC | 0.985 ± 0.074
GCTGGGGTGG | 1.01 ± 0.05
ACGGTTGATG | 0.986 ± 0.021

Sequence | switch fluorescence ratio
TGGTCTTTGT | 1 ± 0.015
AGGGTTGACT | 0.964 ± 0.012
AACCGAAGAC | 2.15 ± 0.075
ATGTTTTTCT | 0.963 ± 0.0029
GCCATTCATC | 1.02 ± 0.017
CCTTTTGTTA | 0.989 ± 0.02
AAATAATGGT | 1.02 ± 0.041
TTAAAGGAGG | 1.02 ± 0.044
CTTGCTTGAG | 1.003 ± 0.0007
TAGCGCTCTA | 0.999 ± 0.024
TTATATCGGG | 0.995 ± 0.016
GGGGGGACTT | 0.983 ± 0.029
CGTGGGGGGG | 1.02 ± 0.052
CATCCGGCCG | 1.194 ± 0.0019
AGGGAAATCG | 0.979 ± 0.037
CTAGACAGGG | 1.028 ± 0.0022
CCAGACCAGT | 1.011 ± 0.0024
TTTTCCGGCC | 1.72 ± 0.54
CTTGTATTAC | 1.16 ± 0.024
